In paper PMC2685691 (The Journal of Biological Chemistry, 2009):
Where “and” joins values, the source holds several entries; their conditions need not be identical. Equal values may be shown once.

Experiments:
Test in all cases: NMR titration
talin F3 Y377A (mouse) = talin F3 Y377A (mouse) (UniProt P26039)
talin F3 K324D (mouse) = talin F3 K324D (mouse) (UniProt P26039)
β3-integrin tail = β3-integrin tail (UniProt P05106)
talin 1655–1822 Q1764A = talin 1655–1822 Q1764A (mouse, UniProt P26039 1655-1822, Q1764A)
talin 1655–1822 T1767A = talin 1655–1822 T1767A (mouse, UniProt P26039 1655-1822, T1767A)
[1] = biological target: talin 1655–1822 rod domain (mouse, UniProt P26039 1655-1822)
talin 1655–1822 Y1777A = talin 1655–1822 Y1777A (mouse, UniProt P26039 1655-1822, Y1777A)
talin 1655–1822 S1684D = talin 1655–1822 S1684D (mouse, UniProt P26039 1655-1822, S1684D)
[2] = biological target: U-15N-labeled talin F3 (309–405) (mouse, UniProt P26039 309-405)
Chain of U-15N-labeled talin F3 (309–405) (P26039 309-405): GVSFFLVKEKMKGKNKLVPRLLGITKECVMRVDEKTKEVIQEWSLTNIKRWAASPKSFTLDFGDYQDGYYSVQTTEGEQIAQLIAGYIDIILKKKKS

Chain of talin 1655–1822 rod domain (mouse, UniProt P26039 1655-1822) (P26039 1655-1822): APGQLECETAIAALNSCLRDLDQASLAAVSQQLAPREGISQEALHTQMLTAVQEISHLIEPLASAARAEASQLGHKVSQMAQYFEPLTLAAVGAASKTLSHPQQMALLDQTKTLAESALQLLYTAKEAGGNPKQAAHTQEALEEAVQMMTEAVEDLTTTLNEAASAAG
Chain of talin 1655–1822 Q1764A (P26039 1655-1822 Q1764A): as the sequence (P26039 1655-1822) above, with Q110A counted along it
Chain of talin 1655–1822 Y1777A (P26039 1655-1822 Y1777A): as the sequence (P26039 1655-1822) above, with Y123A counted along it
Chain of talin 1655–1822 T1767A (P26039 1655-1822 T1767A): as the sequence (P26039 1655-1822) above, with T113A counted along it
Chain of talin 1655–1822 S1684D (P26039 1655-1822 S1684D): as the sequence (P26039 1655-1822) above, with S30D counted along it

Molecule “talin 1655–1822 rod domain (from UniProt P26039 1655-1822) (domain or fragment)” has a fold decrease in binding affinity against wild-type F3 (talin F3 Y377A (mouse)) of 5 fold and a fold decrease in affinity against wild-type F3 (talin F3 K324D (mouse)) of 23 fold.

With “M319A F3 mutant (from UniProt P26039 309-405) (domain or fragment)” the Kd (β3-integrin tail) was 225 µM.

B1: talin F3 FERM subdomain (residues 309–400) (domain or fragment)
chain: GVSFFLVKEKMKGKNKLVPRLLGITKECVMRVDEKTKEVIQEWSLTNIKRWAASPKSFTLDFGDYQDGYYSVQTTEGEQIAQLIAGYIDIIL
For B1, the binding result (talin 1655–1822 Q1764A) was “binds”, the binding result (talin 1655–1822 T1767A) was “binds” and the Kd [1] was 11 µM and 9 µM. B1: binds (talin 1655–1822 Y1777A); binds (talin 1655–1822 S1684D).

B2: β3-integrin tail (domain or fragment)
chain: KLLITIHDRKEFAKFEEERARAKWDTANNPLYKEATSTFTNITYRGT
With B2 the Kd [2] was 273 ± 6 µM.
